From the nanobody polyreactivity screen of Harvey et al. (2022)

Assay: yeast display, Sf9 membrane polyspecificity reagent, FACS + sequencing; frameworks hold sequencing errors
Method in brief: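 Using colony PCR, genes from sorted yeast display clones were amplified, then sequenced on MiSeq at 2 × 250 and filtered by CDR length. The clones had been stained with 10% biotinylated, detergent-solubilized Sf9 membrane reagent for 1 hour at 4 °C and sorted by FACS into low and high (top ~1%) gates on anti-HA and streptavidin fluorescence. Polyreactivity labels come from the gate of origin.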

## QVQLVESGGGLVQAGGSLRLSCAASGITIIHNAMGWYRQAPGKERELVAAITTSDGSTYYADSVKGRFTISRDNAKNTVYLQMNSLKPEDTAVYYCAARGRHSGYYSFPYYYWGQGTQVTVSS
  polyreactivity (PSR sort gate): low polyreactivity

## QVQLQESGGGLVQAGVSLRLSCAASGTIFTARFMAWYRQAPGKERELVATITDGGNTNHADSVKGRFSISRDNAKNTVSLQMNSLKPEYAAVYYCAAGEVDNDTLLFWGQGSQVTVSS
  polyreactivity (PSR sort gate): low polyreactivity

## QVQLVESVGGLVQAGGSLRLSCAASGSIFADYAMGWYRQAPGKERELVAAMTGSGGRTYYADSVKGRFTISRDNAKNTVYLHMNSLKPEDTAVYYCAAYQVGWDPYPRYDYWGQGTQVTVSS
  polyreactivity (PSR sort gate): low polyreactivity

## QVQLVESGGGLVQAGGSIRLSCAASGRTFYPNAMGWYRQAPGKERELVAVISSGGNTDYADSVKGRFTISRDNAKNTVYLQMYSLKPEDTAVYYCNTDTTVVSHYRSYWWGAGYDYWGQGTQVTVSS
  polyreactivity (PSR sort gate): low polyreactivity

## QVQLVESGGGLVQAGGSLRLSCAASGRTIDYNGRGSYRQAPGKERELVAVISSSGGSPFYADSVKGRFTISRDNAKNTVYLQMNSLKPEDTAVYYCAADFIVAYTLHGSYDYWGQGTQVTVSS
  polyreactivity (PSR sort gate): low polyreactivity

## QVQLVESGGGLVQAGGSLRISCAASGITLAKNAMGWYRQAPGKETELVAAISRRGGNTYYADSVKGRFTISRDNAKNTVYLQMNSLKPEDTAVYYCAVDYRSTGLGYWGQGTQVTVSS
  polyreactivity (PSR sort gate): high polyreactivity

## QVQLVESGGGLVQPGGSLRLSCAASGITFRGYAMGWYRQAPGKERELVATISYRGGNTYYADSVKGRFTISRDNAKNTVYLQMNSLKPEDTAVYYCARKYFRTSNLYGYWGQGTQVTVSS
  polyreactivity (PSR sort gate): high polyreactivity

## QVQLVESGGGLVQAGGSLRLSCAASGYTFDYNAMGSYRQAPGKERELVADITGSGASTSYADSVKGRFTISRDYAKNTVYLQMNSLKPEDTAVYYCNADDSYFYELYGYWGQGTQVTVSS
  polyreactivity (PSR sort gate): low polyreactivity

## QLQLVESGGGLVQAGGSLRLSCAASGSTFHLYAMGCYREAPWNEREFVAAIRGRGGNTYADSVKGRFTISRDNAKNTVYLPMNSLKPEDTAVYYCAAAFYYYGDSDNWGQGTQVTVSS
  polyreactivity (PSR sort gate): low polyreactivity

## QVQLVESGGGLVQAGGSLRISCAASGRTFKSYAMGWYRQAPGKERELVAAISSSGGRTFYADSVKGRFTISRDNAKNTVYLQMNSLKPEDTAVYYCNARYCYRYGGYKPVGGYYWGQGTQVTVSS
  polyreactivity (PSR sort gate): high polyreactivity

## QVQLVESGGGLVQAGGSLRLSCAASGITFDSYALGSYRQAPGKERELVAAISGSGGSTYYADSVKGRFTISRDNAKNTVYLQMNSLKPEDTAVYYCAADWYPTGFYYWGQGTQVTVSS
  polyreactivity (PSR sort gate): low polyreactivity

## QVQLVESGGGLVQAGGSLRLSCAASGITFQLYAMGWYRQAPGKERELVAAIDASGGITNYADSVKGRFTISRDNAKNTVYLQMNSLKPEDTAVYYCASFFKLRYRYQFWRYGFGYWGQGTQVTVSS
  polyreactivity (PSR sort gate): high polyreactivity

## QVQLVESGGGLVQAGGSLRLSCAASGFIFASYAMGWYRQATGKERELVAAITQSGGITYYADSVKGRFTISRDNAKNTVYLQMNSLKPEDTAVYYCNTPLMKRTTRGRERNYWGQGTQVTVSS
  polyreactivity (PSR sort gate): low polyreactivity

## QVQLVESGGGLVQAGGSLRLSCAASGNTIDSYGMGWYRQAPGKERELVAAISTSGGSTYYADSVKGRFTISRDNAKNTVYLQMNSLKPEDTAVYYCNATWTMTYDYWGQGTQVTVSS
  polyreactivity (PSR sort gate): low polyreactivity

## QVQLVESGGGLVQAGGSLRLSCAASGSIFQYYAMGWYRQAPGKERELVAAISSGGRTNYADSVKGRFTISRDNAKNTDYLQMNSLKPEDTAVYYCAAARYYYQVYRWEYDYWGQGTQVTVSS
  polyreactivity (PSR sort gate): high polyreactivity

## QVQLVESGGGLVQAGGSLRLSCAASGRTFPYYVMGWYRQAPGKERELVAAINSGGRTNYADSVKGRFTISRDNAKNTVYLQMNSLKPEETAVYYCTKRGHPARLGYYYWGQGTQVTGSS
  polyreactivity (PSR sort gate): low polyreactivity

## QVQLVESGGGLVQAGGSLRLSCAASGSTSRVYAMGWYRQAPGKERELVAAINKSGTRTYYADSVKGRFTISRDNAKNTVYLQMNSLKPEDTAVYYCAADQGTYGYGGFYYWGQGTQVTVSS
  polyreactivity (PSR sort gate): high polyreactivity

## QVQLVESGGGLVQAGGSLRLSCAASGSIFGRYAMGWYRQAPGTERELVAAISSGGITYYADSVKGRFTISRDNAKNTVYLQMNSLTPEDTAVYYCAVKYLSWYAKYDSWGQGTQVTVSS
  polyreactivity (PSR sort gate): high polyreactivity

## QVQLVESGGGLVQAGGSLRLSCAASGNIIQYYAMGWYRQAPGKERELVADIDSSGASKYYADSVKGRFTISRDNAKNTVYLQMNSLKPEVTAVYYCAAEFHWWYAGYDYGYWGQGTQVTVSS
  polyreactivity (PSR sort gate): low polyreactivity

## QVQLVESGGGLVQAGGSLRLSCAASGRIFPYNAMGWYRQAPGKERELVAAISFGGGRTYYADSVKGRFTISRDNAKNTVYLQMNRLKPEDTAVYYCNTASPQDIVFRVFYGGDYWGQGTQVTVSS
  polyreactivity (PSR sort gate): low polyreactivity

## QVQLVESGGGLVQAGGSLRLSCAASGRTFGKNAMGWYRQAPGKEREFVAAITSRGGSTYYADSVKGRFTISRDNAKNTVYLQMNSLKPEDTAVYYCNREYNRPSQRTEHYYWGQGTQVTVSS
  polyreactivity (PSR sort gate): low polyreactivity

## QVQLVESGGGLVQAGGSLRLSCAASGIIFRGYAMGWYREAPGKERELVAAIRDRGGSTYYADSVKGRFTISRDNAKNTVYLQMNSLKPEDTAVYYCATENRVYRHPGYDYDYWGQGTQVTVSS
  polyreactivity (PSR sort gate): low polyreactivity

## QVQLVESGGGLVQAGGSLRLSCAASGSIFPYNVMGWYRQAPGKERELVAAISTRGGRTYYADSVKGRFTISRDNAKNTVYLQMNSLKPEDTAVYYCNTVVLRYLYNYWGQGTQVTVSS
  polyreactivity (PSR sort gate): high polyreactivity

## QVQLVESGGGLVQAGGSLRLSCAASGRTFAVYAMGWYRQAPGKERELVAAITRSGGSTYYADSVKGRFTISRDNAKNTVYLQMNSLKPEDTAVYYCAAGGQARHDYWGQGTQVTVSS
  polyreactivity (PSR sort gate): low polyreactivity

## QVQLVESGGGLVQAGGSLRLSCAASGSTFPRNAMGWYRQAPGKERELVATITSSGGGTYYADSVKGRFTISRDNAKNTVYLQMNSLKPEDTAVYYCNVEVHPYYWVDNFHRFPVLHNYWGQGTQVTVSA
  polyreactivity (PSR sort gate): low polyreactivity

## QVQLVESGGGLVQAGGSLRLSCAPSGSIFYINAMAWYRQAPGKERELVAAITSDGSTYYADSVKGRFTISRDNAKNTVYLQMNSLKPVDTAVYYFAADMTSDQYLYYWYWFYSWGQGTQVTVSS
  polyreactivity (PSR sort gate): low polyreactivity

## QVQLQESGGGLVQAGGSLRLSCAATGTIFTDRFMGWYRQAPGKERELVAGISPGTSTNYADSVKGRFTISRDNAKNTVYLQMNSLKPEDTAVYYCAADWSTGNTLPYWGQGTQVTVSS
  polyreactivity (PSR sort gate): high polyreactivity

## QVQLVESGGGLVQAGGSLRLSCAASGRTSYVYAMGWYRQAPGKERELVAAITSSGGSTYYADSVKGRFTISRDNAKNTVYLQMNSLKPEDTAVYYCAAETYPVWGVAFYYWGQGTQVTVSS
  polyreactivity (PSR sort gate): high polyreactivity

## QVQLVESGGGLVQAGGSLRLSCAASGSTFYIYAMGWYRQAPGKERELVASIRLSTGRTNYADSVKGRFTISRDNAKNTVYLQMNSLKPEDTAVYYCAAAGYRGGGYWGQGTQVTVSS
  polyreactivity (PSR sort gate): high polyreactivity

## QVQLVESGGGIVQAGGILRLSCAASGSTFAGNGMGWYRQAPGKERELVAGIDVTGGSKYYADSVKGRYTISRDNAKNTVYLQMNSLKPEDTAVFDCNARYVYHSSFAGFDYWGQGTQVTVSS
  polyreactivity (PSR sort gate): low polyreactivity

## QVQLVESGGALVQAGGSLRLSCAASGRTFGVYAMGWYRQAPGKERELVAAISRRAGNTYYADSVKGRFTISRDNAKNTVYLQMNSLKTEDTAVYYCAADFSRQYGYWGQGTQVTVSS
  polyreactivity (PSR sort gate): high polyreactivity

## QVQLVESGGGLVQAGGSLRLSCAASGITFYRYAMGWYRQAPGKERELVAAISKRGGTTYYADSVKGRFTISRDNAKNTVYLQMNSLKPEDTAVYYCNKAKTAYRGQYDYWGQGTQVTVSS
  polyreactivity (PSR sort gate): high polyreactivity

## QVQIVESGGGLVQAGGSLRISCAASGFTFYPYTMGWYRQAPGKEREFVAAISWNCGSTYYADSVKGRFTISCDNAKNTVYLQMNSLKPEDSAVYYCAKRSYRSSARELDYWGQGTQVTVSS
  polyreactivity (PSR sort gate): low polyreactivity

## QVQLVESGGGLVQAGGSLRLSCAASGLIFYRYAMGWYRQAPGKERELVAAISSSGGSTYYADSVKGRFTISRDNAKNTVYLQMNSLKPDDTAVYYCAARPSTHGYKYGYWGQGTQVTVSS
  polyreactivity (PSR sort gate): high polyreactivity

## QVQLVESGGGLVQAGGSLRLSCAASGFIFQDYALGWYRKAPGKERELVAAITQSSGSTYYADSVKGRFTISRDNAKNTVYLQMNSLKPEDTAVYYCNTAYDFSRQASYDYWGQGTQVTVSS
  polyreactivity (PSR sort gate): low polyreactivity

## QVQLVESRGGLVQAGGSLRLSCAASGSTFKRYTMGWYRQAPGKESELVAAISTSSGSTYYADCVKGRFTISRDNAKNTVYLQMNSLKPDDSAVYYCAAVRHRQSYPKYNYWGQGTQVTVSS
  polyreactivity (PSR sort gate): high polyreactivity

## QVQLVESGGGLVQAGGSLRLSCAASRFTFSYYAMVWYRKAHVKERELVAAISWRGGTPYADSVKGRFTISRDNAKKTVYLQMNSLKPEDTAVYYCNTAYQVYWRGNYWGQGTQVTVSS
  polyreactivity (PSR sort gate): high polyreactivity

## QVQLVESGGGLVQAGGSLRLSCAASGSTFRPYAMGWYRQAPGKERELVAAITSTGGSTYYADSVKGRFTISRDNAKNTVYLQMNSLKPEDTAVYYCAAPLVRYAGPYDYWGQGTQVTVSS
  polyreactivity (PSR sort gate): low polyreactivity

## QVQLVESGGGLVQAGGSLRLSCAASGRIFYPNAMGWYRQAPGKERELVAAISWSGGSTYYADSVKGRFTISRDNAKNTVYLQMNSLKPEDTAVYYCNAEYRYYQKTPGRYTNVEYDYWGQGTQVTVSS
  polyreactivity (PSR sort gate): low polyreactivity

## QVQLVESGGGLVQAGGSLRLSCAASGRTFVYYDMGWYRQAPGKERELVAAISRRGDTTYYADSVKGRFTISRDNAKNTVYLQMNSLKPVDTAVYYCNARSIKYGSWGQGTQVTVSS
  polyreactivity (PSR sort gate): high polyreactivity

## QVQLVESGGGLVQAGGSLRLSCAASGRTFLYYAMGWYRQAPGKERELVAAISSGGRTNYADSVNGRFTISRDNAKNTVYLQMNSRKPEDTAVYYCAVRRGAFSTYPGYNYWGQGTQVTVSS
  polyreactivity (PSR sort gate): high polyreactivity

## QVQLVESGGGLVQAGGSLRLSCAASGSTFHPNAMGWYIQAPGKERQLVAAISRGGSTNYADSVKGRFTISRDNAKNTVYLQMNSLKPEDTAVYYCAKDFFGISSDPVDMDYWGQGTQVTVSS
  polyreactivity (PSR sort gate): low polyreactivity

## QVQLVESGGGLVQAGGSLRLSCAASGRTFYKYAMGWYRPAPGKERELVAAISGSGGGTYYADSVKGRFTISRDNAKNTVYLQMNSLKPEDTAVYYCAAVYLYYAYAFDYWGQGTHVTVSS
  polyreactivity (PSR sort gate): high polyreactivity
